Consider 17 molecules from patent US20110158985A1 (published 2011).

“And” between values parts separate entries of the source, which are not always exact repeats. Equal entries are not always repeated. Where two headings read alike, the source gives them in different places. Some results are limits rather than exact numbers.

Assay [1] has as its target T1, recombinant C-terminally truncated RSV (A2 strain) F protein (RSV (A2 strain), UniProt P03420 26-524).
T1 construct: extracellular domain; also called truncated F protein; extracellular domain of the F protein from RSV A2
Kind of assay: SPR (BIAcore), Fab over immobilised F. Background: In SPR one partner is held on a chip, and binding of the other changes the refractive index at the surface.

Another assay addresses RSV F protein (purified) (respiratory syncytial virus). Kind of assay: SPR (BIAcore), F protein immobilised.
Assay [2] deals with T2, F protein of RSV (Long strain) (RSV (Long strain), UniProt P12568 26-574). Put plainly: cell-based or functional assay.
Assay [3] addresses T2, F protein of RSV (Long strain). Put plainly: cell-based or functional assay. The source holds these as a separate data set.
Assay [4] addresses T1, recombinant C-terminally truncated RSV …. Kind of assay: SPR (BIAcore), Fab over immobilised F. The source holds these as a separate data set.
For assay [5], the target named is T2, F protein of RSV (Long strain). Put plainly: cell-based or functional assay. The source holds these as a separate data set.

In general, Kd refers to the free concentration of one partner at which half of the binding sites on the other are occupied at equilibrium, for simple one-to-one binding. As a reminder, the koff is the first-order rate constant of dissociation. For orientation: kon means the second-order rate constant of association.

B1: A3e2 Fab (Fab, V domains shown)
VH: QVTLRESGPALVKPTQTLTLTCTFSGFSLSTAGMSVGWIRQPPGKALEWLADIWWGDKGHYNPSLKDRLTISKDTSKNQVVLKVTNMDPADTATYYCARDMIFNWYFDVWGQGTTVTVSS
VL: DIQMTQSPSTLSASVGDRVTITCSASSSVGYMHWYQQKPGKAPKLLIYDTFYLHSGVPSRFSGSGSGTEFTLTISSLQPDDFATYYCFQGSGYPFTFGGGTKVEIK
In the case of B1, in assay [1], the Kd is 0.157 nM, the koff amounted to 9.4e-05 s⁻¹ and the kon was determined as 599000 M⁻¹ s⁻¹.

B2: P12f4 Fab (Fab, V domains shown)
VH: QVTLRESGPALVKPTQTLTLTCTFSGFSLSTPGMSVGWIRQPPGKALEWLADIWWDGKKHYNPSLKDRLTISKDTSKNQVVLKVTNMDPADTATYYCARDMIFNFYFDVWGQGTTVTVSS
VL: DIQMTQSPSTLSASVGDRVTITCSLSSRVGYMHWYQQKPGKAPKLLIYDTRGLPSGVPSRFSGSGSGTEFTLTISSLQPDDFATYYCFQGSGYPFTFGGGTKVEIK
With B2, in the assay with RSV F protein (purified), the off-rate (koff) is 0.000299 s⁻¹ and the kon turned out to be 527000 M⁻¹ s⁻¹.

B3: M3H9 Fab (Fab, V domains shown)
VH: QVTLRESGPALVKPTQTLTLTCTFSGFSLSTAGMSVGWIRQPPGKALEWLADIWWDDKKDYNPSLKSRLTISKDTSKNQVVLKVTNMDPADTATYYCARDMIFNWYFDVWGQGTTVTVSS
VL: DIQMTQSPSTLSASVGDRVTITCSASSSVGYMHWYQQKPGKAPKLLIYDTYKQTSGVPSRFSGSGSGTEFTLTISSLQPDDFATYYCFQGSGYPFTFGGGTKVEIK
Turning to B3, in the assay with RSV F protein (purified), the koff is 0.000338 s⁻¹ and the kon was determined as 605000 M⁻¹ s⁻¹.

B4: 6H8 Fab (Fab, V domains shown)
VH: QVTLRESGPALVKPTQTLTLTCTFSGFSLSTAGMSVGWIRQPPGKALEWLADIWWDDKKDYNPSLKSRLTISKDTSKNQVVLKVTNMDPADTATYYCARDMITNFYFDVWGQGTTVTVSS
VL: DIQMTQSPSTLSASVGDRVTITCSASSSVGYMHWYQQKPGKAPKLLIYDTFKLTSGVPSRFSGSGSGTEFTLTISSLQPDDFATYYCFQGSGYPFTFGGGTKVEIK
Regarding B4, in the assay with RSV F protein (purified), the koff was 0.000178 s⁻¹ and 0.000473 s⁻¹; the kon is 314000 M⁻¹ s⁻¹ and 444000 M⁻¹ s⁻¹.

B5: H3-3F4 Fab (Fab, V domains shown)
VH: QVTLRESGPALVKPTQTLTLTCTFSGFSLSTAGMSVGWIRQPPGKALEWLADIWWDDKKDYNPSLKSRLTISKDTSKNQVVLKVTNMDPADTATYYCARDMIFNWYFDVWGQGTTVTVSS
VL: DIQMTQSPSTLSASVGDRVTITCSASSSVGYMHWYQQKPGKAPKLLIYDTFKLASGVPSRFSGSGSGTEFTLTISSLQPDDFATYYCFQGSGYPFTFGGGTKVEIK
Consider B5, for which, in the assay with RSV F protein (purified), the koff was 0.000445 s⁻¹ and 0.000402 s⁻¹.

B6: Y10H6 Fab (Fab, V domains shown)
VH: QVTLRESGPALVKPTQTLTLTCTFSGFSLSTAGMSVGWIRQPPGKALEWLADIWWDDKKDYNPSLKSRLTISKDTSKNQVVLKVTNMDPADTATYYCARDMIFNWYFDVWGQGTTVTVSS
VL: DIQMTQSPSTLSASVGDRVTITCSASSSVGYMHWYQQKPGKAPKLLIYDTRYLSSGVPSRFSGSGSGTEFTLTISSLQPDDFATYYCFQGSGYPFTFGGGTKVEIK
B6: in the assay with RSV F protein (purified), the koff came out at 0.000462 s⁻¹ and the on-rate constant (kon) was 757000 M⁻¹ s⁻¹.

B7: L1-7E5 Fab (Fab, V domains shown)
VH: QVTLRESGPALVKPTQTLTLTCTFSGFSLSTAGMSVGWIRQPPGKALEWLADIWWDDKKDYNPSLKSRLTISKDTSKNQVVLKVTNMDPADTATYYCARDMITNFYFDVWGQGTTVTVSS
VL: DIQMTQSPSTLSASVGDRVTITCSASSRVGYMHWYQQKPGKAPKLLIYDTFKLASGVPSRFSGSGSGTEFTLTISSLQPDDFATYYCFQGSGYPFTFGGGTKVEIK
Consider B7, for which, in the assay with RSV F protein (purified), the koff is 0.000192 s⁻¹ and 0.000331 s⁻¹ and 0.000229 s⁻¹.

B8: DG (aka D95/G93) Fab (Fab, V domains shown)
VH: QVTLRESGPALVKPTQTLTLTCTFSGFSLSTAGMSVGWIRQPPGKALEWLADIWWDDKKDYNPSLKSRLTISKDTSKNQVVLKVTNMDPADTATYYCARDMITNFYFDVWGQGTTVTVSS
VL: DIQMTQSPSTLSASVGDRVTITCSASSSVGYMHWYQQKPGKAPKLLIYDTFKLASGVPSRFSGSGSGTEFTLTISSLQPDDFATYYCFQGSGYPFTFGGGTKVEIK
As for B8, in the assay with RSV F protein (purified), the koff is 0.000167 s⁻¹ and 0.000444 s⁻¹.

B9: A17d4(1) Fab (Fab, V domains shown)
VH: QVTLRESGPALVKPTQTLTLTCTFSGFSLSTAGMSVGWIRQPPGKALEWLADIWWDGKKSYNPSLKDRLTISKDTSKNQVVLKVTNMDPADTATYYCARDMIFNFYFDVWGQGTTVTVSS
VL: DIQMTQSPSTLSASVGDRVTITCLPSSRVGYMHWYQQKPGKAPKLLIYDTMYQSSGVPSRFSGSGSGTEFTLTISSLQPDDFATYYCFQGSGYPFTFGGGTKVEIK
Regarding B9, in assay [2], the “Mean IC50 (Control)” value came out at 0.0171 µg/mL and the “Mean IC50 (Curve)” value was found to be 0.0179 µg/mL. For the same molecule, the “Microneutralization IC50, Fab” value in assay [3] was 0.0179 µg/ml and 0.36 nM. In assay [1], the Kd is 0.111 nM, the koff turned out to be 5.9e-05 s⁻¹ and the kon is 531000 M⁻¹ s⁻¹.

B10: A14a4 Fab (Fab, V domains shown)
VH: QVTLRESGPALVKPTQTLTLTCTFSGFSLSTAGMSVGWIRQPPGKALEWLADIWWDDKKSYNPSLKDRLTISKDTSKNQVVLKVTNMDPADTATYYCARDMITNWYFDVWGQGTTVTVSS
VL: DIQMTQSPSTLSASVGDRVTITCLLSSRVGYMHWYQQKPGKAPKLLIYDTYYQTSGVPSRFSGSGSGTEFTLTISSLQPDDFATYYCFQGSGYPFTFGGGTKVEIK
With B10, the “Microneutralization IC50, Fab” value in assay [3] was > 0.4 µg/ml and > 8 nM. In assay [1], the Kd came to 0.723 nM, the koff came to 0.00024 s⁻¹ and the kon is 332000 M⁻¹ s⁻¹.

B11: A8c7 Fab (Fab, V domains shown)
VH: QVTLRESGPALVKPTQTLTLTCTFSGFSLSTAGMSVGWIRQPPGKALEWLADIWWDDKKSYNPSLKDRLTISKDTSKNQVVLKVTNMDPADTATYYCARDMIFNWYFDVWGQGTTVTVSS
VL: DIQMTQSPSTLSASVGDRVTITCSPSSRVGYMHWYQQKPGKAPKLLIYDTRYQSSGVPSRFSGSGSGTEFTLTISSLQPDDFATYYCFQGSGYPFTFGGGTKVEIK
On to B11, for which, in assay [2], the “Mean IC50 (Control)” value was found to be 0.157 µg/mL and the “Mean IC50 (Curve)” value amounted to 0.177 µg/mL. Also, the “Microneutralization IC50, Fab” value in assay [3] was 0.177 µg/ml and 3.54 nM. In assay [1], the dissociation constant Kd was determined as 0.464 nM, the koff was determined as 0.0003 s⁻¹ and the kon was determined as 647000 M⁻¹ s⁻¹.

B12: A17h4 Fab (Fab, V domains shown)
VH: QVTLRESGPALVKPTQTLTLTCTFSGFSLSTAGMSVGWIRQPPGKALEWLADIWWDGKKHYNPSLKDRLTISKDTSKNQVVLKVTNMDPADTATYYCARDMIFNWYFDVWGQGTTVTVSS
VL: DIQMTQSPSTLSASVGDRVTITCSPSSSVGYMHWYQQKPGKAPKLLIYDTYYLASGVPSRFSGSGSGTEFTLTISSLQPDDFATYYCFQGSGYPFTFGGGTKVEIK
Turning to B12, in assay [1], the Kd was found to be 0.202 nM, the koff was 0.000105 s⁻¹ and the kon was 519000 M⁻¹ s⁻¹.

B13: A4b4 Fab (Fab, V domains shown)
VH: QVTLRESGPALVKPTQTLTLTCTFSGFSLSTAGMSVGWIRQPPGKALEWLADIWWDDKKHYNPSLKDRLTISKDTSKNQVVLKVTNMDPADTATYYCARDMIFNFYFDVWGQGTTVTVSS
VL: DIQMTQSPSTLSASVGDRVTITCSASSRVGYMHWYQQKPGKAPKLLIYDTFFLDSGVPSRFSGSGSGTEFTLTISSLQPDDFATYYCFQGSGYPFTFGGGTKVEIK
For B13, in assay [2], the “Mean IC50 (Control)” value was determined as 0.0411 µg/mL and the “Mean IC50 (Curve)” value stood at 0.0414 µg/mL. Moreover, in assay [3], the “Microneutralization IC50, Fab” value was 0.414 µg/ml and 0.83 nM. Also, in assay [1], the Kd came to 0.086 nM, the koff was 5.2e-05 s⁻¹ and the association rate constant (kon) came out at 604000 M⁻¹ s⁻¹.

B14: G93W Fab (Fab, name in Kabat numbering, V domains shown)
VH: QVTLRESGPALVKPTQTLTLTCTFSGFSLSTSGMSVGWIRQPPGKALEWLADIWWDDKKDYNPSLKSRLTISKDTSKNQVVLKVTNMDPADTATYYCARSMITNWYFDVWGQGTTVTVSS
VL: DIQMTQSPSTLSASVGDRVTITCSASSSVGYMHWYQQKPGKAPKLLIYDTSKLASGVPSRFSGSGSGTEFTLTISSLQPDDFATYYCFQGSWYPFTFGGGTKVEIK
As to B14, in assay [4], the Kd came out at 0.93 nM, the off-rate constant (koff) turned out to be 0.00014 s⁻¹ and the kon was found to be 150000 M⁻¹ s⁻¹. Besides, the “Microneutralization IC50, Fab” value in assay [5] was 6.57 µg/ml and 131 nM.

B15: A16b4 Fab (Fab, V domains shown)
VH: QVTLRESGPALVKPTQTLTLTCTFSGFSLSTAGMSVGWIRQPPGKALEWLADIWWDDKKHYNPSLKDRLTISKDTSKNQVVLKVTNMDPADTATYYCARDMIFNWYFDVWGQGTTVTVSS
VL: DIQMTQSPSTLSASVGDRVTITCLLSSRVGYMHWYQQKPGKAPKLLIYDTMYQASGVPSRFSGSGSGTEFTLTISSLQPDDFATYYCFQGSGYPFTFGGGTKVEIK
For the molecule B15, in assay [1], the Kd came out at 0.214 nM, the koff was 0.000105 s⁻¹ and the kon amounted to 490000 M⁻¹ s⁻¹.

B16: palivizumab Fab (papain cleavage of palivizumab IgG) (Fab, V domains shown)
VH: QVTLRESGPALVKPTQTLTLTCTFSGFSLSTSGMSVGWIRQPPGKALEWLADIWWDDKKDYNPSLKSRLTISKDTSKNQVVLKVTNMDPADTATYYCARSMITNWYFDVWGAGTTVTVSS
VL: DIQMTQSPSTLSASVGDRVTITCKCQLSVGYMHWYQQKPGKAPKLLIYDTSKLASGVPSRFSGSGSGTEFTLTISSLQPDDFATYYCFQGSGYPFTFGGGTKLEIK
notes: also called Palivizumab^a
Turning to B16, the Kd in assay [4] was 6.07 nM.

B17: A17b5 Fab (Fab, V domains shown)
VH: QVTLRESGPALVKPTQTLTLTCTFSGFSLSTAGMSVGWIRQPPGKALEWLADIWWDDKKHYNPSLKDRLTISKDTSKNQVVLKVTNMDPADTATYYCARDMIFNWYFDVWGQGTTVTVSS
VL: DIQMTQSPSTLSASVGDRVTITCSLSSRVGYMHWYQQKPGKAPKLLIYDTYYLPSGVPSRFSGSGSGTEFTLTISSLQPDDFATYYCFQGSGYPFTFGGGTKVEIK
For B17, the “Microneutralization IC50, Fab” value in assay [3] is 0.406 µg/ml and 0.92 nM. In assay [1], the Kd is 0.124 nM, the koff amounted to 7.3e-05 s⁻¹ and the kon was 590000 M⁻¹ s⁻¹.
